According to IntAct's records for PubMed 32296183:

B1: Ceroid-lipofuscinosis neuronal protein 6 (Homo sapiens), Q9NWW5 (parent)
chain: MEATRRRQHLGATGGPGAQLGASFLQARHGSVSADEAARTAPFHLDLWFYFTLQNWVLDFGRPIAMLVFPLEWFPLNKPSVGDYFHMAYNVITPFLLLKLIERSPRTLPRSITYVSIIIFIMGASIHLVGDSVNHRLLFSGYQHHLSVRENPIIKNLKPETLIDSFELLYYYDEYLGHCMWYIPFFLILFMYFSGCFTASKAESLIPGPALLLVAPSGLYYWYLVTEGQIFILFIFTFFAMLALVLHQKRKRLFLDSNGLFLFSSFALTLLLVALWVAWLWNDPVLRKKYPGVIYVPEPWAFYTLHVSSRH
partner: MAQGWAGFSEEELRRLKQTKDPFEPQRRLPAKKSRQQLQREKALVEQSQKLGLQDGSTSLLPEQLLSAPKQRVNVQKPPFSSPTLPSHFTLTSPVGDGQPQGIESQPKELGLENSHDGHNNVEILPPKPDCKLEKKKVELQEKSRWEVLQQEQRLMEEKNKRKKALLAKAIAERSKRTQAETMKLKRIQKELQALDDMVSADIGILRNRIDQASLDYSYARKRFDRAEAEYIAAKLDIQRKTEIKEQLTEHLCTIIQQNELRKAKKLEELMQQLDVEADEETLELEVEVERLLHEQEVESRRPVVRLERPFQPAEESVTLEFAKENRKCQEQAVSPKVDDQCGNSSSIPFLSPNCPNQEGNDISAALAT
B2: Golgi SNAP receptor complex member 2 (Homo sapiens), O14653 (parent)
chain: MDPLFQQTHKQVHEIQSCMGRLETADKQSVHIVENEIQASIDQIFSRLERLEILSSKEPPNKRQNARLRVDQLKYDVQHLQTALRNFQHRRHAREQQERQREELLSRTFTTNDSDTTIPMDESLQFNSSLQKVHNGMDDLILDGHNILDGLRTQRLTLKGTQKKILDIANMLGLSNTVMRLIEKRAFQDKYFMIGGMLLTCVVMFLVVQYLT
partner: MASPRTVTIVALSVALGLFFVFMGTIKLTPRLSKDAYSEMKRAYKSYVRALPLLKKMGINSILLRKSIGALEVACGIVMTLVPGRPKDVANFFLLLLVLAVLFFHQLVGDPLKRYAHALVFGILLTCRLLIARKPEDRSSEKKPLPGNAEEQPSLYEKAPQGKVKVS
B3: Very-long-chain enoyl-CoA reductase (Homo sapiens), Q9NZ01 (parent)
chain: MKHYEVEILDAKTREKLCFLDKVEPHATIAEIKNLFTKTHPQWYPARQSLRLDPKGKSLKDEDVLQKLPVGTTATLYFRDLGAQISWVTVFLTEYAGPLFIYLLFYFRVPFIYGHKYDFTSSRHTVVHLACICHSFHYIKRLLETLFVHRFSHGTMPLRNIFKNCTYYWGFAAWMAYYINHPLYTPPTYGAQQVKLALAIFVICQLGNFSIHMALRDLRPAGSKTRKIPYPTKNPFTWLFLLVSCPNYTYEVGSWIGFAIMTQCLPVALFSLVGFTQMTIWAKGKHRSYLKEFRDYPPLRMPIIPFLL
partner: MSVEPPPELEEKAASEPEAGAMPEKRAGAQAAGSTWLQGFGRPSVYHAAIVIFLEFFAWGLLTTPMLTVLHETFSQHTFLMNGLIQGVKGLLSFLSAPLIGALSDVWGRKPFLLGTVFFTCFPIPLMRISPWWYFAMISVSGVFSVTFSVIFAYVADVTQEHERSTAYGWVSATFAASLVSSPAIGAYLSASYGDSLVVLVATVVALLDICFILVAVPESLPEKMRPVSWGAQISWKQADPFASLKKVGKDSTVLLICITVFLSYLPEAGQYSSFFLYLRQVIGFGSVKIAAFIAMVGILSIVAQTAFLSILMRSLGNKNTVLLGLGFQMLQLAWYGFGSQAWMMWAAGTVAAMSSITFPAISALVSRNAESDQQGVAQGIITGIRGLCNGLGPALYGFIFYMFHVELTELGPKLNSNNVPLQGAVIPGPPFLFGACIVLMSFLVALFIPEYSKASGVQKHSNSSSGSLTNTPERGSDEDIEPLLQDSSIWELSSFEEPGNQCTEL
B4: Golgi SNAP receptor complex member 2 (Homo sapiens), O14653 (parent)
chain: B2 chain
partner: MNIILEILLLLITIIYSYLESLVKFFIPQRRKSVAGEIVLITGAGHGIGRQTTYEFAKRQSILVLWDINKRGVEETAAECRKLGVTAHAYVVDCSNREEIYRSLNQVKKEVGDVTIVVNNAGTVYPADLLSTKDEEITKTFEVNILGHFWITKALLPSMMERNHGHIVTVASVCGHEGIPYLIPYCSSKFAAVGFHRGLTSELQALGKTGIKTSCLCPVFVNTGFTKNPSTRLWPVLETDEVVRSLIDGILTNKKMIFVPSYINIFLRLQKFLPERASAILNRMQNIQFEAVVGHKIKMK
B5: Golgi SNAP receptor complex member 2 (Homo sapiens), O14653 (parent)
chain: B2 chain
partner: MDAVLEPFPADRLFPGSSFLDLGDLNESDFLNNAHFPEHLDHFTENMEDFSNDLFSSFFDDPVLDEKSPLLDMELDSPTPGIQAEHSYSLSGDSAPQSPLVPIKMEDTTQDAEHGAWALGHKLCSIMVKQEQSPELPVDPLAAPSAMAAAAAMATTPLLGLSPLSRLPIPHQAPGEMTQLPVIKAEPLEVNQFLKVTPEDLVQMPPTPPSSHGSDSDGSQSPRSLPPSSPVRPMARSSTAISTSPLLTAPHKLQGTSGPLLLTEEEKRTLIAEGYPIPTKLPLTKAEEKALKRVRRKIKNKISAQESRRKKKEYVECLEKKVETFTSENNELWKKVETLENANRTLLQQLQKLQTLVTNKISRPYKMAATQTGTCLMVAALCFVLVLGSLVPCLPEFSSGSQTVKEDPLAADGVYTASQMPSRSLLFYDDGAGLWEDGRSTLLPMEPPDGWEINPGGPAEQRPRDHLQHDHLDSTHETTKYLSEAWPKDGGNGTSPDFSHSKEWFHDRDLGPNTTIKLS
B6: Ceroid-lipofuscinosis neuronal protein 6 (Homo sapiens), Q9NWW5 (parent)
chain: B1 chain
partner: B5 partner

Variants of: B1
Details: with gorab_human GORAB

| Variant | effect of a mutation on the interaction |
| --- | --- |
| MEATRRRQHLGATGGPGAQLGASFLQARHGSVSADEAARTAPFHLDFWFYFTLQNWVLDFGRPIAMLVFPLEWFPLNKPSVGDYFHMAYNVITPFLLLKLIERSPRTLPRSITYVSIIIFIMGASIHLVGDSVNHRLLFSGYQHHLSVRENPIIKNLKPETLIDSFELLYYYDEYLGHCMWYIPFFLILFMYFSGCFTASKAESLIPGPALLLVAPSGLYYWYLVTEGQIFILFIFTFFAMLALVLHQKRKRLFLDSNGLFLFSSFALTLLLVALWVAWLWNDPVLRKKYPGVIYVPEPWAFYTLHVSSRH [L47F] | with no effect |
| MEATRRRQHLGATGGPGAQLGASFLQARHGSVSADEAARTAPFHLDLWFYFTLQNWVLDFGRPIAMLVFPLEWFPLNKPSVGDYFHMAYNVITPFLLLKLIERSPRTLPRSITYVSIIIFIMDASIHLVGDSVNHRLLFSGYQHHLSVRENPIIKNLKPETLIDSFELLYYYDEYLGHCMWYIPFFLILFMYFSGCFTASKAESLIPGPALLLVAPSGLYYWYLVTEGQIFILFIFTFFAMLALVLHQKRKRLFLDSNGLFLFSSFALTLLLVALWVAWLWNDPVLRKKYPGVIYVPEPWAFYTLHVSSRH [G123D] | with no effect |
| MEATRTRQHLGATGGPGAQLGASFLQARHGSVSADEAARTAPFHLDLWFYFTLQNWVLDFGRPIAMLVFPLEWFPLNKPSVGDYFHMAYNVITPFLLLKLIERSPRTLPRSITYVSIIIFIMGASIHLVGDSVNHRLLFSGYQHHLSVRENPIIKNLKPETLIDSFELLYYYDEYLGHCMWYIPFFLILFMYFSGCFTASKAESLIPGPALLLVAPSGLYYWYLVTEGQIFILFIFTFFAMLALVLHQKRKRLFLDSNGLFLFSSFALTLLLVALWVAWLWNDPVLRKKYPGVIYVPEPWAFYTLHVSSRH [R6T] | with no effect |

Variants of: B2
Details: with nacho_human TMEM35A

| Variant | effect of a mutation on the interaction |
| --- | --- |
| MDPLFQQTHKQVHEIQSCMGRLETADKQSVHIVENEIQASIDQIFSRLERLEILSSKEPPNKRQNARLRVDQLKYDVQHLQTALRNFQHRRHAREQQERQREELLSRTFTTNDSDTTIPMDESLQFNSSLQKVHNGMDDLILDWHNILDGLRTQRLTLKGTQKKILDIANMLGLSNTVMRLIEKRAFQDKYFMIGGMLLTCVVMFLVVQYLT [G144W] | with no effect |

Variants of: B3
Details: with mf14b_human MFSD14B

| Variant | effect of a mutation on the interaction |
| --- | --- |
| MKHYEVEILDAKTREKLCFLDKVEPHATIAEIKNLFTKTHPQWYPARQSLRLDPKGKSLKDEDVLQKLPVGTTATLYFRDLGAQISWVTVFLTEYAGPLFIYLLFYFRVPFIYGHKYDFTSSRHTVVHLACICHSFHYIKRLLETLFVHRFSHGTMPLRNIFKNCTYYWGFAAWMAYYINHLLYTPPTYGAQQVKLALAIFVICQLGNFSIHMALRDLRPAGSKTRKIPYPTKNPFTWLFLLVSCPNYTYEVGSWIGFAIMTQCLPVALFSLVGFTQMTIWAKGKHRSYLKEFRDYPPLRMPIIPFLL [P182L] | disrupting interaction strength |

Variants of: B4
Details: with dhb13_human HSD17B13, Q7Z5P4

| Variant | effect of a mutation on the interaction |
| --- | --- |
| MDPLFQQTHKQVHEIQSCMGRLETADKQSVHIVENEIQASIDQIFSRLERLEILSSKEPPNKRQNARLRVDQLKYDVQHLQTALRNFQHRRHAREQQERQREELLSRTFTTNDSDTTIPMDESLQFNSSLQKVHNGMDDLILDWHNILDGLRTQRLTLKGTQKKILDIANMLGLSNTVMRLIEKRAFQDKYFMIGGMLLTCVVMFLVVQYLT [G144W] | with no effect |

Variants of: B5
Details: with cr3l1_human CREB3L1, Q96BA8

| Variant | effect of a mutation on the interaction |
| --- | --- |
| MDPLFQQTHKQVHEIQSCMGRLETADKQSVHIVENEIQASIDQIFSRLERLEILSSKEPPNKRQNARLRVDQLKYDVQHLQTALRNFQHRRHAREQQERQREELLSRTFTTNDSDTTIPMDESLQFNSSLQKVHNGMDDLILDWHNILDGLRTQRLTLKGTQKKILDIANMLGLSNTVMRLIEKRAFQDKYFMIGGMLLTCVVMFLVVQYLT [G144W] | with no effect |

Variants of: B6
Details: with cr3l1_human CREB3L1, Q96BA8

| Variant | effect of a mutation on the interaction |
| --- | --- |
| MEATRTRQHLGATGGPGAQLGASFLQARHGSVSADEAARTAPFHLDLWFYFTLQNWVLDFGRPIAMLVFPLEWFPLNKPSVGDYFHMAYNVITPFLLLKLIERSPRTLPRSITYVSIIIFIMGASIHLVGDSVNHRLLFSGYQHHLSVRENPIIKNLKPETLIDSFELLYYYDEYLGHCMWYIPFFLILFMYFSGCFTASKAESLIPGPALLLVAPSGLYYWYLVTEGQIFILFIFTFFAMLALVLHQKRKRLFLDSNGLFLFSSFALTLLLVALWVAWLWNDPVLRKKYPGVIYVPEPWAFYTLHVSSRH [R6T] | with no effect |
| MEATRRRQHLGATGGPGAQLGASFLQARHGSVSADEAARTAPFHLDFWFYFTLQNWVLDFGRPIAMLVFPLEWFPLNKPSVGDYFHMAYNVITPFLLLKLIERSPRTLPRSITYVSIIIFIMGASIHLVGDSVNHRLLFSGYQHHLSVRENPIIKNLKPETLIDSFELLYYYDEYLGHCMWYIPFFLILFMYFSGCFTASKAESLIPGPALLLVAPSGLYYWYLVTEGQIFILFIFTFFAMLALVLHQKRKRLFLDSNGLFLFSSFALTLLLVALWVAWLWNDPVLRKKYPGVIYVPEPWAFYTLHVSSRH [L47F] | with no effect |
| MEATRRRQHLGATGGPGAQLGASFLQARHGSVSADEAARTAPFHLDLWFYFTLQNWVLDFGRPIAMLVFPLEWFPLNKPSVGDYFHMAYNVITPFLLLKLIERSPRTLPRSITYVSIIIFIMDASIHLVGDSVNHRLLFSGYQHHLSVRENPIIKNLKPETLIDSFELLYYYDEYLGHCMWYIPFFLILFMYFSGCFTASKAESLIPGPALLLVAPSGLYYWYLVTEGQIFILFIFTFFAMLALVLHQKRKRLFLDSNGLFLFSSFALTLLLVALWVAWLWNDPVLRKKYPGVIYVPEPWAFYTLHVSSRH [G123D] | with no effect |
